The test addresses Isolated RCK domain (M107-A336) of MthK, preparation for NMR (from pQE70-MthK) (Methanobacterium thermoautotrophicum, UniProt O27564 107-336). Kind of test: NMR titration; 700-MHz 1H NMR, 25 °C; isolated RCK titrated with synthetic peptide at [peptide]:[RCK] 0:1, 1:5, 1:2, 1:1 and 1:0; 20 mM Tris-HCl (pH 7.5), 150 mM KCl, 1 mM DTT; RCK concentrated to approximately 200 μM; disappearance of the peptide's His11 and Met1 peaks followed. The note with it: both partners purified.

Where no end group is shown, it is not given here.

B1: synthetic aa1–11 peptide (peptide)
peptide: MVLVIEIIRKH-NH2
notes: MthK K+ channel of Methanobacterium thermoautotrophicum, N-terminal residues 1-11; source: synthetic peptide (Celtek Peptides)
As to B1, the binding result is reported as “binds”.

For the origin of these results see article PMC2573919, “The Desensitization Gating of the MthK K^+ Channel Is Governed by Its Cytoplasmic Amino Terminus” (PLoS Biology, 2008).
